Test results published in patent US20040265972A1.

Molecular target: human TSH receptor stably expressed on Chinese Hamster Ovary (CHO) cells (CHO-hTSHR clone JP09 and clone JP26) (human) (UniProt P16473)
Assay: cell-based or functional assay

Vmax (cyclic AMP production), fold increase compared to wild type TSH: 1.5 fold
in vitro activity, fold over that of the α4K/TSH-β wild type heterodimer: 3 to 4 fold
potency (cyclic AMP production), fold increase compared to wild type TSH: 200 fold
Substance: hTSH α4K/TSH-β-CTEP (heterodimer of mutant α4K subunit and human TSH-β subunit fused to the CTEP of hCG) (from UniProt P0DN86 134-165) (ligand)
